According to article PMC6770577 (2019):
No end group written: not given here. *: point of attachment. FITC = O=C1OC2(c3ccc(O)cc3Oc3cc(O)ccc32)c2ccc(NC(=S)*)cc21

Legend:
CaM = CaM (Homo sapiens, UniProt P0DP23); test: steady-state fluorescence anisotropy
S100A1 = biological target: T1, S100A1 (Homo sapiens, UniProt P23297); test: steady-state fluorescence anisotropy
T1 chain: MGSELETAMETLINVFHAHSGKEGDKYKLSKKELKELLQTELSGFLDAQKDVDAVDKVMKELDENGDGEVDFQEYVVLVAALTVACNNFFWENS

B1: TRPM6np (peptide)
chain: {FITC}-LIGRAYRSNYTRKHFR
B1 gave a Kd (CaM) of 14.9 µM and a Kd (S100A1) of 17.8 µM.
